Kd data for one molecule are collected here from patent US20100322920 (published 2010).

Values joined by “and” are separate entries in the source; they are usually repeats but may differ in a detail not shown here. Identical values can stand only once.

What is called Kd is the constant that tells how readily two partners part at equilibrium.

This assay addresses T1, human CD30 (TNFRSF8), recombinant (human, UniProt P28908).
T1 chain: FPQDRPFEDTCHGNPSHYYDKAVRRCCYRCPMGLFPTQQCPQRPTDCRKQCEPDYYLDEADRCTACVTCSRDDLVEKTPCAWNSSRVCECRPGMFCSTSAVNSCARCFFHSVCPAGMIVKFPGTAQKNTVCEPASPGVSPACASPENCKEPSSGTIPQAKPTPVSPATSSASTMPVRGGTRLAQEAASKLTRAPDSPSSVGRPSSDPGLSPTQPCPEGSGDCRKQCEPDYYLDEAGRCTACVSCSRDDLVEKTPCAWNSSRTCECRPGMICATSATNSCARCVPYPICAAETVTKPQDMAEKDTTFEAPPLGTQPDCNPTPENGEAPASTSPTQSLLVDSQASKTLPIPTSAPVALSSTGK
Kind of assay: SPR. In general terms: In SPR one partner is held on a chip, and binding of the other changes the refractive index at the surface.

B1: HuMab 5F11 (antibody, V domains shown)
VH: QVQLQQWGAGLLKPSETLSLTCAVYGGSFSAYYWSWIRQPPGKGLEWIGDINHGGGTNYNPSLKSRVTISVDTSKNQFSLKLNSVTAADTAVYYCASLTAYWGQGSLVTVSS
VL: DIQMTQSPTSLSASVGDRVTITCRASQGISSWLTWYQQKPEKAPKSLIYAASSLQSGVPSRFSGSGSGTDFTLTISSLQPEDFATYYCQQYDSYPITFGQGTRLEIK
Consider B1, for which the dissociation constant (Kd) was 1.12 nM and 1.14 nM and 1.23 nM and 1.36 nM.
